Sequences and labels used below:
B1: TPR 5TU (parent)
chain: GGAUCUUCUCGAUCUAACAAAAAAGACAAAUCUGCCACAAAGCUUGAGAGCAUCUUCGGAUGCAGAGGCGGCAGCCUUCGGUGGCGCGAUAGCGCCAACGUUCUCAACUAUGACACGCAAAACGCGUGCUCCGUUGAAUGGAGUUUAUCAUG

Fewer inactive variants are shown than the library holds. Some results are limits rather than exact numbers.

This data set covers variants of B1. The experiment in a line: polymerase ribozyme fitness, log enrichment relative to wild type (log ratio); higher = more active; in vitro selection for triplet polymerase activity. The procedure, abridged: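 A single round of triplicate in vitro selection, including frozen incubation at −7 °C, was applied to PCR-built, transcribed mutant libraries of each subunit of a heterodimeric triplet polymerase ribozyme. Illumina sequencing of input and output libraries retained genotypes with ≥10 input reads and ≥1 read per output. Fitness is the base-2 logarithm of genotype enrichment divided by wild-type enrichment, from inverse-variance-weighted replicate averages.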
As to U6C U7G A49G A66C G74A C96G, the “polymerase ribozyme fitness (log ratio)” value was ≤ -4.2.
On to C5U C8U G58A A73G C114U A120G, for which the “polymerase ribozyme fitness (log ratio)” value is -3.02.
With C5U A19G U77A C95U the figure was ≤ -4.2; with C5G U13C A17C G83U U134C A137C, ≤ -4.2; with U6A A22G C125U, -0.424.
For the variant U6A A23C G68U G100U C131U G143U, the “polymerase ribozyme fitness (log ratio)” value is ≤ -4.2.
Turning to U6C A17U A64U A73U C85G U127A U130G A142G, the “polymerase ribozyme fitness (log ratio)” value is ≤ -4.2.
The value for U6C A21U U55A G58A G86A was -3.18; that for U6C G94A C105U U127A was ≤ -4.2; that for C5U C51U G84A A150G was -2.47.
With C5G U7A U56A A91C A106G C125A G136A U145A the figure was ≤ -4.2.
On to C5U A49C G81U C93G, for which the “polymerase ribozyme fitness (log ratio)” value was ≤ -4.2.
With C5G C69G C93U, the “polymerase ribozyme fitness (log ratio)” value is -4.12.
In the case of C5U A24U C32G U53G C123G A147G U151G, the “polymerase ribozyme fitness (log ratio)” value was ≤ -4.2.
With C5G C10G A28U U33G C79U, the “polymerase ribozyme fitness (log ratio)” value was ≤ -4.2.
For the variant C5G C85U A142U, the “polymerase ribozyme fitness (log ratio)” value was -1.45.
With U6C A40U U56A G59U C87U A98U C118U, the “polymerase ribozyme fitness (log ratio)” value is -0.984.
Take U6A C87A A137C: the “polymerase ribozyme fitness (log ratio)” value is ≤ -4.2.
With C5U G92A the figure was -1.32; with C5U A73U G83A, -0.929.
In the case of U6A U44G A98U A107U, the “polymerase ribozyme fitness (log ratio)” value was -1.58.
For C5G G65A A66G A137C G141C, the “polymerase ribozyme fitness (log ratio)” value is ≤ -4.2.
For the variant C5G G50U C57U G92C A120G, the “polymerase ribozyme fitness (log ratio)” value is -2.75.
With C5G C14G A41C G48C G126A G140A the figure was ≤ -4.2.
The value for C5G G34A C38U C43U G83A was ≤ -4.2; that for C5G U55G G83U U101C was -2.49; that for U6G was 0.0167.
Turning to U6C, the “polymerase ribozyme fitness (log ratio)” value was -0.0891.
For the variant U6A, the “polymerase ribozyme fitness (log ratio)” value is 0.197.
With C5G A91U, the “polymerase ribozyme fitness (log ratio)” value is ≤ -4.2.
As for C5G C10U A49G U56A G74C C85U U90G C93U G100U A115C G141A, the “polymerase ribozyme fitness (log ratio)” value is ≤ -4.2.
For the variant U6C U31G G50C C69G G94C A119U U151A, the “polymerase ribozyme fitness (log ratio)” value was ≤ -4.2.
The value for U6C A39C A66G U90A C93A C99A G100C C103A C116G A147C was ≤ -4.2; that for C5G U101G was 0.0588.
The value for U6A C87U was -0.846; that for C5U C87U G94C was -2.15; that for C5U C8U A23C C85U C103A C116U was ≤ -4.2.
With C5G G46A G92C the figure was -4.13; with C5G G50A U61G G62A A66C C96A U146A, ≤ -4.2; with U6C C95U A98U C99U, -2.4.
As for U6C U31C C57A C96G, the “polymerase ribozyme fitness (log ratio)” value is -1.1.
With C5U the figure was 0.998; with U6A C35A U104C, -3.88; with U6A C14G C85G U90G A113U, ≤ -4.2.
Turning to C5U A19G A23G G58U G81A G94C C116A C129U U135C U146G, the “polymerase ribozyme fitness (log ratio)” value was ≤ -4.2.
For the variant C5U U13G A20C C27G G80A C87U U148G, the “polymerase ribozyme fitness (log ratio)” value is ≤ -4.2.
Regarding U6A C79A G86U A89C C103G, the “polymerase ribozyme fitness (log ratio)” value was ≤ -4.2.
For C5U A28C U56A U77C G94A, the “polymerase ribozyme fitness (log ratio)” value is ≤ -4.2.
As to C5U C8G A23U U45A G84C, the “polymerase ribozyme fitness (log ratio)” value is ≤ -4.2.
For C5U G25C G42U U61A A107U G133U A142C U148A, the “polymerase ribozyme fitness (log ratio)” value is ≤ -4.2.
U6C A41G U56G G59A U61G C76A A91C C95G G124A: the “polymerase ribozyme fitness (log ratio)” value was ≤ -4.2.
Consider C5G U7C A16C C27U C32G A49C U53G C125A A137U G143C, for which the “polymerase ribozyme fitness (log ratio)” value was ≤ -4.2.
With U6A C18G U56A A106G the figure was -0.358; with C5U G74A A91U C93G, ≤ -4.2.
With C5U A19C A39G G80C C87U C105G U135A the figure was ≤ -4.2; with C5G C38A G58U, -1.06.
Regarding U6C A49G G59A G92A U111A, the “polymerase ribozyme fitness (log ratio)” value was ≤ -4.2.
U6A A22C G50A U61G C79U C85A G143U A147C: the “polymerase ribozyme fitness (log ratio)” value was ≤ -4.2.
Regarding U6C A49C U55A U104C U146C, the “polymerase ribozyme fitness (log ratio)” value is ≤ -4.2.
As to C5G U45G G86U C93G A97G, the “polymerase ribozyme fitness (log ratio)” value was -3.16.
As to C5G U9A C54U U146C, the “polymerase ribozyme fitness (log ratio)” value was -2.79.
C5G G50C C85U: the “polymerase ribozyme fitness (log ratio)” value was -3.69.
The value for U6G A12U A28C A40C G94C was ≤ -4.2; that for U6C U33G U56C G81C C95U was ≤ -4.2; that for C5U A20C C43G C76G C108G C114U A120U U146G was ≤ -4.2.
For the variant U6A C85U, the “polymerase ribozyme fitness (log ratio)” value is -0.519.
Take C5U G11A A29U G70C G84A C96U: the “polymerase ribozyme fitness (log ratio)” value is ≤ -4.2.
For the variant C5U C8G A137U U145A A147C, the “polymerase ribozyme fitness (log ratio)” value is ≤ -4.2.
As for U6C A24C G86U U104G C125U, the “polymerase ribozyme fitness (log ratio)” value was ≤ -4.2.
The value for U6C C93G was -3.54; that for C5U U6G C79G was ≤ -4.2; that for C5U C54U U82A C95G A147U was -1.27.
As to U6C A47G G59C G92U C99A C118G, the “polymerase ribozyme fitness (log ratio)” value was -3.32.
As to U6C C10U A20C A122C, the “polymerase ribozyme fitness (log ratio)” value was ≤ -4.2.
The value for C5U U7C A21U G86A C131A was -4.16; that for U6A C69G G84U U145C was -1.67; that for C5U U45A G50U G86C C96U was ≤ -4.2.
As to U6C A60G G117U, the “polymerase ribozyme fitness (log ratio)” value was -1.75.
With C5U C85U the figure was -0.24.
With C5G C36U C96G, the “polymerase ribozyme fitness (log ratio)” value is -2.51.
On to C5U A22U C27G C36G G83U C103G C116U G136U, for which the “polymerase ribozyme fitness (log ratio)” value is ≤ -4.2.
For the variant C5U A17C G50A U77A C87G A91C A106U U109G, the “polymerase ribozyme fitness (log ratio)” value is ≤ -4.2.
Take U6A A24U G81U C85G G140U: the “polymerase ribozyme fitness (log ratio)” value is ≤ -4.2.

(Values after the RNAGym collection of RNA variant scans (doi:10.1073/pnas.2313332121).)
